Assay results published in patent US20100261218A1.

What was measured:
[1] = target: T1, Synechocystis sp. PCC6803 fatty acid synthesis acyl carrier protein (SACP), P20804
T1 chain: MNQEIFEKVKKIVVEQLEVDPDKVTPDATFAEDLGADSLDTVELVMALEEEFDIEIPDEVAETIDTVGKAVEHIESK

[2] = target: N. punctiforme ATCC29133 PKS aryl carrier protein (ArCP) from HetM of glycolipid synthesis (NpArCP)
[3] = target: N. punctiforme ATCC29133 PKS acyl carrier protein of nostopeptolide biosynthesis (NpACP)
[4] = target: Bacillus brevis ATCC8185 NRPS peptidyl carrier protein involved in tyrocidine biosynthesis (TycPCP)
[5] = target: Nostoc punctiforme NRPS peptidyl carrier protein (Nppcp), C-terminal NosA PCP of the putative nostopeptolide cluster

B1: Synechocystis sp. PCC6803 phosphopantetheinyl transferase (Sppt) (protein)
chain: MLPQPQIWLCPTDRPLIPGYQALLSSEEMARGERYQRPQDKQRFLTMRLALRILLARQLDCLPQQLQFTYGPQGKPELVDRERRSPWFNVAHSGNYGLIGLSTEGEIGVDLQIMLPKPHYLKLAKRFFAPQEVQQLESLEGEKRTKLFYQLWTAKEAFLKATGKGISGGLNQVIPDENLAKYQYLPDSGDTNHWRLSSQPLLADQGSNDNYWMAIAWCTNEVNQVESNYLPNIQPFQWPRNLDSLP
B1 was tested, and the “phosphopantetheinylation of the carrier protein (10 min in vitro assay, ESI-MS, +340 Da)” value [1] was “After in vitro incubation with Sppt, SACP showed an increased abundance of phosphopantetheinylated carrier protein”, the “phosphopantetheinylation of the carrier protein (30 min in vitro assay, ESI-MS)” value [2] was “Sppt was unable to phosphopantetheinylate the N. punctiforme ATCC29133 NpArCP as shown by mass spectrometry” and the “phosphopantetheinylation of the carrier protein (30 min in vitro assay, ESI-MS)” value [3] was “Phosphopantetheinylated NpACP was not reproducibly detected after incubation with Sppt”. For the same protein, the “percent of carrier protein phosphopantetheinylated (30 min in vitro assay, ESI-MS)” value [4] was “approximately 54% of the P. aeruginosa PAO1 NRPS TycPCP was phosphopantetheinylated by Sppt”.

B2: N. sp. heterocyst carrier protein synthase (NhcS), phosphopantetheinyl transferase from Nodularia spumigena NSOR10 (protein)
chain: MTALNHLWLPVPTNLTLLPNDVHIWRIHLDVPEAQQQNLLATLSGDELTRANRFHFQEHRQRFIAGRGILRSILGSYLGIEPQRVLFDYQERGKPILADSLAKSGLWFNLSHSQGLALCAVNYHNRIGIDLEYIRRMSDVEALAKRFFLPREYDVVRSLSDHQQQEIFFRYWTCKEAYLKATGEGLAQLEQVEVLLNPTEPAQLQTSESWSLFELRAAEDYFAAVVVEGSGCNLQCWQY
In the case of B2, the “pantetheinylation of the carrier protein (30 min in vitro assay, ESI-MS)” value [5] is reported as “Nppcp was pantetheinylated” and the “pantetheinylation of the carrier protein (30 min in vitro assay, ESI-MS)” value [2] is reported as “The conversion of the apo-ArCP (15.75 kDa) to the holo-ArCP (16.05 kDa) is seen”.
